Source: publication PMC3762337

Target: Dyn1_(387kD) (S. cerevisiae) (UniProt P36022)
Experiment: single-molecule GFP fluorescence intensity; GFP-tagged motors on surface-immobilised Cy5 MTs, with ATP or apyrase, 5 min; intensities of GFP spots compared with GST-Dyn1 331kD

stoichiometry N: 2
Substance: Dyn1_(387kD), P36022 732-4092
